Results reported in patent US20020155571A1, “Triazine degrading enzymes” (priority 2000, published 2002).

How the values were obtained:
Format in all cases: biochemical
[1] = Product formation by washed and induced cells expressing triazine hydrolase, substrate propazine; conditions: 250 μM substrate, 20 ul washed and induced cells OD600 = 3 in 100 μl 10 mM NH3Acetate pH 6.8, 37° C.
[2] = Product formation by washed and induced cells expressing triazine hydrolase, substrate prometryn; conditions: 250 μM substrate, 20 ul washed and induced cells OD600 = 3 in 100 μl 10 mM NH3Acetate pH 6.8, 37° C.
[3] = Product formation by washed and induced cells expressing triazine hydrolase, substrate N-methylpropazine; conditions: 250 μM substrate, 20 ul washed and induced cells OD600 = 3 in 100 μl 10 mM NH3Acetate pH 6.8, 37° C.
[4] = Product formation by washed and induced cells expressing triazine hydrolase, substrate prometon; conditions: 250 μM substrate, 20 ul washed and induced cells OD600 = 3 in 100 μl 10 mM NH3Acetate pH 6.8, 37° C.
[5] = Product formation by washed and induced cells expressing triazine hydrolase, substrate atratone; conditions: 250 μM substrate, 20 ul washed and induced cells in 100 μl NH3Acetate pH 6.8, 22° C.
[6] = Product formation by washed and induced cells expressing triazine hydrolase, substrate aminoatrazine; conditions: 250 μM substrate, 20 ul washed and induced cells in 100 μl NH3Acetate pH 6.8, 22° C.
[7] = Product formation by washed and induced cells expressing triazine hydrolase, substrate ametryn; conditions: 250 μM substrate, 20 ul washed and induced cells in 100 μl NH3Acetate pH 6.8, 22° C.
[8] = Product formation by washed and induced cells expressing triazine hydrolase, substrate atrazine; conditions: 250 μM substrate, 20 ul washed and induced cells in 100 μl NH3Acetate pH 6.8, 22° C.
[9] = Product formation by washed and induced cells expressing triazine hydrolase, substrate aminopropazine; conditions: 250 μM substrate, 20 ul washed and induced cells OD600 = 3 in 100 μl 10 mM NH3Acetate pH 6.8, 37° C.
[10] = Product formation by washed and induced cells expressing triazine hydrolase, substrate N-methylatrazine; conditions: 250 μM substrate, 20 ul washed and induced cells in 100 μl NH3Acetate pH 6.8, 22° C.

B1: atzA: naturally occurring atrazine chlorohydrolase (atzA), GenBank #U55933 (protein, UniProt P72156 1-474, looked up)
Atrazine chlorohydrolase: MQTLSIQHGTLVTMDQYRRVLGDSWVHVQDGRIVALGVHAESVPPPADRVIDARGKVVLPGFINAHTHVNQILLRGGPSHGRQFYDWLFNVVYPGQKAMRPEDVAVAVRLYCAEAVRSGITTINENADSAIYPGNIEAAMAVYGEVGVRVVYARMFFDRMDGRIQGYVDALKARSPQVELCSIMEETAVAKDRITALSDQYHGTAGGRISVWPAPATTTAVTVEGMRWAQAFARDRAVMWTLHMAESDHDERIHGMSPAEYMECYGLLDERLQVAHCVYFDRKDVRLLHRHNVKVASQVVSNAYLGSGVAPVPEMVERGMAVGIGTDNGNSNDSVNMIGDMKFMAHIHRAVHRDADVLTPEKILEMATIDGARSLGMDHEIGSIETGKRADLILLDLRHPQTTPHHHLAATIVFQAYGNEVDTVLIDGNVVMENRRLSFLPPERELAFLEEAQSRATAILQRANMVANPAWRSL
[1]
  Product formation, substrate Propazine: 26 nM/h
[2]
  Product formation, substrate Prometryn: 0 nM/h
[3]
  Product formation, substrate NMePropazine: 0 nM/h
[4]
  Product formation, substrate Prometon: 0 nM/h
[5]
  Product formation, substrate Atratone: 0 nM/h
[6]
  Product formation, substrate Aminoatrazine: 0 nM/h
[7]
  Product formation, substrate Ametryn: 0 nM/h
[8]
  Product formation, substrate Atrazine: 58899 nM/h
[9]
  Product formation, substrate Aminopropazine: 0 nM/h
[10]
  Product formation, substrate NMeAtrazine: 0 nM/h
